As usually defined, the Km is the substrate concentration at which the rate is half of its maximum.

Substrate in the data set: Cc1c([C@@H](C)O)ncn1C1O[C@H](CO)[C@@H](O)[C@H]1O

Description: Ability to inhibit the deamination of adenosine by calf intestine adenosine deaminase expressed as Km

B1: Adenosine deaminase (Bos taurus), P56658 (protein)
chain: MAQTPAFNKPKVELHVHLDGAIKPETILYYGRKRGIALPADTPEELQNIIGMDKPLSLPEFLAKFDYYMPAIAGCREAVKRIAYEFVEMKAKDGVVYVEVRYSPHLLANSKVEPIPWNQAEGDLTPDEVVSLVNQGLQEGERDFGVKVRSILCCMRHQPSWSSEVVELCKKYREQTVVAIDLAGDETIEGSSLFPGHVKAYAEAVKSGVHRTVHAGEVGSANVVKEAVDTLKTERLGHGYHTLEDATLYNRLRQENMHFEVCPWSSYLTGAWKPDTEHPVVRFKNDQVNYSLNTDDPLIFKSTLDTDYQMTKNEMGFTEEEFKRLNINAAKSSFLPEDEKKELLDLLYKAYGMPSPASAEQCL
As to B1, the Km stood at 39 µM.

The values above are taken from ChEMBL document CHEMBL1122856, “Study on the inhibition of adenosine deaminase” (J Med Chem, 1985).
